The record followed here is the supplement of paper PMC10065799, “High-throughput profiling of sequence recognition by tyrosine kinases and SH2 domains using bacterial peptide display” (eLife, 2023).

In one series the target is c-Src SH2. Kind of series: SH2 binding enrichment of the phosphorylated peptide, bacterial display (enrichment ratio); higher = better substrate or ligand; peptides without Tyr show the background.
The target in a further series is Grb2 SH2 (UniProt P62993). The series is described as above.
The next series concerns the target SHP2-C SH2. Described as above.
The next series has as its target EPHB1 (UniProt P54762). Nature of the series: phosphorylation enrichment, bacterial display (enrichment ratio); higher = better substrate or ligand; peptides without Tyr show the background.
A further series deals with Fes (UniProt P07332). The description is as above.
Chain of Fes (P07332 whole entry, looked up): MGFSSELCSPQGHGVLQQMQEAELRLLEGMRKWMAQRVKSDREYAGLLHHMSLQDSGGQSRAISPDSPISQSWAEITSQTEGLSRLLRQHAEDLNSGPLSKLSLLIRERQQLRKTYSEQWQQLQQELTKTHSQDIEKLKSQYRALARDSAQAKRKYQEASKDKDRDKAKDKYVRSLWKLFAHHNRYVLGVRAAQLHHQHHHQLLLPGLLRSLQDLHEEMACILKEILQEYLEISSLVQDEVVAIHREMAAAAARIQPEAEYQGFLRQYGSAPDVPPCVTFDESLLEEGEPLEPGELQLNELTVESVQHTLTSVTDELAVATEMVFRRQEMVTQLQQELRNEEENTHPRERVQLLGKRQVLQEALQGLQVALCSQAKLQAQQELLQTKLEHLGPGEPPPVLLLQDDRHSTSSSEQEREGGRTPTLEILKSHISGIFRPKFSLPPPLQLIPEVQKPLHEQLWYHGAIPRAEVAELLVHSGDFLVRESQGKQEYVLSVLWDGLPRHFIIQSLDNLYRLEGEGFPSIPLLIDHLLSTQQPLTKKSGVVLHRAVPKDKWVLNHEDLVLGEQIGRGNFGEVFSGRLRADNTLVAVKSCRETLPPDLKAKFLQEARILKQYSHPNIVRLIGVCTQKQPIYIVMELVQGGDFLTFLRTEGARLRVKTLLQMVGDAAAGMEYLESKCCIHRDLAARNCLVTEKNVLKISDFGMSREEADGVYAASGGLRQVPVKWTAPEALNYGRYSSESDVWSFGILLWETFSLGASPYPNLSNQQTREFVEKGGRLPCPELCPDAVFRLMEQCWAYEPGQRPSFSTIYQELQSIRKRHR
The target in the next series is Fyn (UniProt P06241). The description is as above.
The next series deals with FGFR1 (UniProt P11362). The series is described as above.
In another series the target is Hck (UniProt P08631). The description is as above.
The target of a further series is FGFR3 (UniProt P22607). Described as above.
Another series concerns c-Src. The series is described as above.
The target in a further series is EPHB2 (UniProt P29323). The series is described as above.
Chain of EPHB2 (P29323 whole entry, looked up): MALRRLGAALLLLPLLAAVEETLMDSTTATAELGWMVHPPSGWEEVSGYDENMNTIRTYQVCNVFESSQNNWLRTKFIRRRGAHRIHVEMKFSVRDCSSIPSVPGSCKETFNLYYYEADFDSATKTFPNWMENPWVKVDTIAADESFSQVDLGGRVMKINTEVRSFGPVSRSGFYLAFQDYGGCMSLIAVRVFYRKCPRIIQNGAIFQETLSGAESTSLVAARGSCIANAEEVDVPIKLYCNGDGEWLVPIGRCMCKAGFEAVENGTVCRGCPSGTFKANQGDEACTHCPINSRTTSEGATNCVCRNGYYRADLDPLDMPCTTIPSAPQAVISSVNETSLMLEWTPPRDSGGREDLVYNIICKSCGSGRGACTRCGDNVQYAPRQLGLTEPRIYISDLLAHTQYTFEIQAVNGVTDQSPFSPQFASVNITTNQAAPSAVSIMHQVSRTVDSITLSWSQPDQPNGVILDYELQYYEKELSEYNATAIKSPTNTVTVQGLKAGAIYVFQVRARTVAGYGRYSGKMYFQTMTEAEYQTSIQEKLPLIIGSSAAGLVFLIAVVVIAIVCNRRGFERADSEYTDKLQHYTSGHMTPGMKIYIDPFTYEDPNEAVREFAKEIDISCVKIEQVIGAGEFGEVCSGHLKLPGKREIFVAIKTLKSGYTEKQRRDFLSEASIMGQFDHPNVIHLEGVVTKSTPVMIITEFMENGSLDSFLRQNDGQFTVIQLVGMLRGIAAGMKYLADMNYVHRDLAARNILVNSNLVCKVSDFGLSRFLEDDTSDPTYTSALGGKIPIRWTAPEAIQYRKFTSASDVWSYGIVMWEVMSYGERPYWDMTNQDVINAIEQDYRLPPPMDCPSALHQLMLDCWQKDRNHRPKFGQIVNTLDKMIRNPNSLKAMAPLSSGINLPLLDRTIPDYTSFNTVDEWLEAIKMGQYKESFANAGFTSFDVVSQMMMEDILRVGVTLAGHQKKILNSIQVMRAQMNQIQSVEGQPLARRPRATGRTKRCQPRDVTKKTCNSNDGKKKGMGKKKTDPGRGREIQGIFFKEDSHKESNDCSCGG
For a further series, the target named is MERTK (UniProt Q12866). The description is as above.
Chain of MERTK (Q12866 whole entry, looked up): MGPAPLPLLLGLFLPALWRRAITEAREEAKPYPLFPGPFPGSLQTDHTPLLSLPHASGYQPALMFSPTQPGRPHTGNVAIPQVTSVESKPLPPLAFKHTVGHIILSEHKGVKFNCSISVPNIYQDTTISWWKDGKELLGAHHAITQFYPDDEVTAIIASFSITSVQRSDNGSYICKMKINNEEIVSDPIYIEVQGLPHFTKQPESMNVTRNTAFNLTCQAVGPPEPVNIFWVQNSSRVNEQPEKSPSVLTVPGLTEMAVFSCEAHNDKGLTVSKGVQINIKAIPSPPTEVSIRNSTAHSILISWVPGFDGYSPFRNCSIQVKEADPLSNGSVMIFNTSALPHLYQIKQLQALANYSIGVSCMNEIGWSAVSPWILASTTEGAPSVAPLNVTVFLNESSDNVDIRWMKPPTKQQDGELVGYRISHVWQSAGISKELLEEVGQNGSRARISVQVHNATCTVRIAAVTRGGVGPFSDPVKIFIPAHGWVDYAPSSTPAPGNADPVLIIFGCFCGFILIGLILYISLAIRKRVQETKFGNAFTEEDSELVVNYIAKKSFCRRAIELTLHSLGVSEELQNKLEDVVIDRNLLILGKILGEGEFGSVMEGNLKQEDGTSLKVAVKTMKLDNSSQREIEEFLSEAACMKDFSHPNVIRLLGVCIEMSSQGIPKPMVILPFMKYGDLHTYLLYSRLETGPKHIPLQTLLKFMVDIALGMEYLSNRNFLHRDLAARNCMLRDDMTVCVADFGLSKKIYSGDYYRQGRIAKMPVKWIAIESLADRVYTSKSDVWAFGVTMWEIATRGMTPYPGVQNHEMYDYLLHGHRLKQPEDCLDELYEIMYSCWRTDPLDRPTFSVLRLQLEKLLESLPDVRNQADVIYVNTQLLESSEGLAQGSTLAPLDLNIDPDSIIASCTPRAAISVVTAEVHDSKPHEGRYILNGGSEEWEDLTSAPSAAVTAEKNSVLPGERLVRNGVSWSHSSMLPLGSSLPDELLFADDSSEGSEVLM
In the next series the test system is c-Abl (mouse). The series is described as above.
In another series the test system is AncSZ. The series is described as above.
In the next series the test system is Fer (mouse). The series is described as above.
A further series has as its target Jak2 (UniProt O60674). Described as above.
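Wherever SH2 binding enrichment of the phosphorylated peptide, bacterial display is given: peptide library displayed on the E. coli surface as eCPX fusions, selected cells deep-sequenced, score is each peptide's frequency after selection divided by its frequency in the input.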
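Wherever phosphorylation enrichment, bacterial display is given: 11-residue human phosphosite peptides and single-mutation variants displayed on the E. coli surface, counted by deep sequencing, each peptide's frequency after selection divided by its frequency in the unselected input library; frequency after pTyr selection over input frequency; kinase dosed for 20-30% of maximal phosphorylation in three min.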

Chain of EPHB1 (P54762 whole entry, looked up): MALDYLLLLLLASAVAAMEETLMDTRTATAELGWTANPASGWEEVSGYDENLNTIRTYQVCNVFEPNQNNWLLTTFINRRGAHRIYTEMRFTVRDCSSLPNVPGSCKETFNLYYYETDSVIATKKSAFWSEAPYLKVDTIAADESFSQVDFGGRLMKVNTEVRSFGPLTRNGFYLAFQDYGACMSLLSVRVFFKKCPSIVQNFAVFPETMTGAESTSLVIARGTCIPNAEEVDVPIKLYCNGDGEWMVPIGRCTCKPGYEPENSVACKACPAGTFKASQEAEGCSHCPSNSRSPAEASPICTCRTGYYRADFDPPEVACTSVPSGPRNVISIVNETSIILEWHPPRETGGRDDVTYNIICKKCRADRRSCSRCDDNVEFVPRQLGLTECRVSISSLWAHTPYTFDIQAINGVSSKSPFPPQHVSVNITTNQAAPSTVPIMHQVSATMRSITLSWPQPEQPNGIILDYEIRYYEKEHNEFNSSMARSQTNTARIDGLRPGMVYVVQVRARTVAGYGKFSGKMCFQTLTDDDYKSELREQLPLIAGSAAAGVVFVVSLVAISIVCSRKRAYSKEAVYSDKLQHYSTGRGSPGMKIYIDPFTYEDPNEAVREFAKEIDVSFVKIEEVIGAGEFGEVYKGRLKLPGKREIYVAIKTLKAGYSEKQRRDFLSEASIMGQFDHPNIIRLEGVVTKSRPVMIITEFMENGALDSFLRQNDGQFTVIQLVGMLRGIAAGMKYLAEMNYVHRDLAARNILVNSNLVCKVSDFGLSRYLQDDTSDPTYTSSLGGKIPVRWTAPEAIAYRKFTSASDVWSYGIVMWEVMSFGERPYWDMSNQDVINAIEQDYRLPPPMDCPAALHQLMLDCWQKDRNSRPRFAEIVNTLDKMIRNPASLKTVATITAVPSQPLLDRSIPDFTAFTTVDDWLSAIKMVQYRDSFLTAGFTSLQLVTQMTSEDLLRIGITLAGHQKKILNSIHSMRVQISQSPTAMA
Chain of Jak2 (O60674 whole entry, looked up, the tested form may be a part): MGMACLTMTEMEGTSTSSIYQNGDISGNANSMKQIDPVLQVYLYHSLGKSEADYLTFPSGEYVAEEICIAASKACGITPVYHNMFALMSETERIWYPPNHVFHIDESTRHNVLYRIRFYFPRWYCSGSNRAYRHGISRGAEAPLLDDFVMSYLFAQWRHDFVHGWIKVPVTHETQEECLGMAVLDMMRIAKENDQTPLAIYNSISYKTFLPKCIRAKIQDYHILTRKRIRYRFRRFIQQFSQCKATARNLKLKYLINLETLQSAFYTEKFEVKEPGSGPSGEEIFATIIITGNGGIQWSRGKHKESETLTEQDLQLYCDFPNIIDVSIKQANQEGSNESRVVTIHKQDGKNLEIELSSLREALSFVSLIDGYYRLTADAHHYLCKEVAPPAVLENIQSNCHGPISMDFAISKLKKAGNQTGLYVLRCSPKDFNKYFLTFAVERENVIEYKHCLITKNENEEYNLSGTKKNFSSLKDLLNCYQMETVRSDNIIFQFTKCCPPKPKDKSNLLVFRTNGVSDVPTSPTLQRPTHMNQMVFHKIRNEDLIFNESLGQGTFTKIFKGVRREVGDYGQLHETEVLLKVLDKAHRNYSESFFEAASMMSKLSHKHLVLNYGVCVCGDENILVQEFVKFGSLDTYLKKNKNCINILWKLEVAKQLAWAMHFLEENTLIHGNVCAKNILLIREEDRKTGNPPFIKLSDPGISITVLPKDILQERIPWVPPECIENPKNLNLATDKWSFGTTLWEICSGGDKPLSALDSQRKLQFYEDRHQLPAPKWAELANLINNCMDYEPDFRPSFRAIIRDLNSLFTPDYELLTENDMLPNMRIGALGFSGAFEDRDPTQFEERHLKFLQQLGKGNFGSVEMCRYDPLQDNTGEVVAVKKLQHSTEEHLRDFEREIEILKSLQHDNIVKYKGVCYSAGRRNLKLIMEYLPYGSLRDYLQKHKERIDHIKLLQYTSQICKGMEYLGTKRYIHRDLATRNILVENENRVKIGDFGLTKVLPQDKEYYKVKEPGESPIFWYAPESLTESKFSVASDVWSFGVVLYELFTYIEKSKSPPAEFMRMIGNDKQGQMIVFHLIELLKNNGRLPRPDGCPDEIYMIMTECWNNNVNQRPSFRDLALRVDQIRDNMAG

Take AFGTVYKGLWI [EGFR_Y727]: the SH2 binding enrichment was 0.628 in the series with c-Src SH2, 0.857 with Grb2 SH2 and 1.3 in the series with SHP2-C SH2. Further, the phosphorylation enrichment in the series with EPHB1 amounted to 0.532; with Fes, 1.13; with Fyn, 0.593; in the series with FGFR1, 0.517; with Hck, 0.525; in the series with FGFR3, 0.755. The phosphorylation enrichment came out at 0.619 in the series on c-Src; 0.587 with EPHB2; 0.39 with MERTK; 0.724 in the series on c-Abl (mouse); 1.2 with AncSZ; 0.511 in the series with Fer (mouse). In addition, the phosphorylation enrichment with Jak2 turned out to be 1.16.

For the sequence AAETTYDKILK [GDNF_Y156], the SH2 binding enrichment in the series with c-Src SH2 turned out to be 3.75; with Grb2 SH2 it was 0.708; with SHP2-C SH2, 1.28. For the same sequence, the phosphorylation enrichment in the series with EPHB1 is 0.555; with Fes, 1.09; with Fyn it was 0.596; in the series with FGFR1 it was 0.467; in the series with Hck it was 1.36; with FGFR3 it was 0.725. Besides, the phosphorylation enrichment was 0.501 with c-Src; 0.496 with EPHB2; 0.376 with MERTK; 0.521 in the series on c-Abl (mouse); 0.886 with AncSZ; 0.474 with Fer (mouse). The phosphorylation enrichment with Jak2 turned out to be 0.888.

Consider EVVGRYSVHYA [MLH1_Y183_N187Y], for which the results for the SH2 binding enrichment with c-Src SH2, with Grb2 SH2 and with SHP2-C SH2 were 0.544, 0.75 and 0.808, respectively. Further, the phosphorylation enrichment amounted to 0.475 with EPHB1; 1.03 with Fes; 0.392 in the series with Fyn; 0.462 in the series with FGFR1; 0.38 with Hck; 0.588 in the series with FGFR3. Further, the phosphorylation enrichment in the series with c-Src stood at 0.404; with EPHB2, 0.5; with MERTK it was 0.46; in the series with c-Abl (mouse), 0.649; in the series on AncSZ, 0.751; with Fer (mouse) it was 0.416. In the series with Jak2, the phosphorylation enrichment is 0.823.

As to MFRAGYDTKQE [F10_Y407_C404R], the values for the SH2 binding enrichment with c-Src SH2, with Grb2 SH2 and in the series with SHP2-C SH2 were 0.5, 0.796 and 0.872, respectively. In addition, the phosphorylation enrichment amounted to 0.475 in the series with EPHB1; 0.761 with Fes; 0.395 in the series with Fyn; 0.379 with FGFR1; 0.383 with Hck; 0.448 with FGFR3. Also, the phosphorylation enrichment in the series with c-Src is 0.332; with EPHB2 it was 0.447; with MERTK, 0.335; with c-Abl (mouse) it was 0.497; in the series on AncSZ, 0.671; in the series with Fer (mouse), 0.391. Also, in the series with Jak2, the phosphorylation enrichment stood at 0.589.

For the sequence LPSKDYAEVRR [HP_Y272_G276R], the SH2 binding enrichment with c-Src SH2 stood at 1.72; with Grb2 SH2 it was 0.965; with SHP2-C SH2, 1.31. The phosphorylation enrichment with EPHB1 came out at 1.48; with Fes, 0.832; in the series with Fyn it was 0.559; in the series with FGFR1 it was 0.712; with Hck, 0.7; with FGFR3, 0.865. The phosphorylation enrichment in the series with c-Src worked out at 0.832; with EPHB2, 0.638; with MERTK it was 0.361; in the series on c-Abl (mouse), 1.75; in the series with AncSZ it was 0.598; with Fer (mouse), 0.419. For the same sequence, the phosphorylation enrichment with Jak2 was 0.539.

Consider GACGGYCSVLG [RAB18_Y202], for which the SH2 binding enrichment with c-Src SH2 amounted to 8.18; in the series with Grb2 SH2, 0.875; with SHP2-C SH2, 2.48. The phosphorylation enrichment was 0.358 in the series with EPHB1; 0.77 with Fes; 0.473 with Fyn; 0.435 in the series with FGFR1; 0.392 in the series with Hck; 0.401 with FGFR3. For the same sequence, the phosphorylation enrichment with c-Src came out at 0.509; with EPHB2 it was 0.352; in the series with MERTK it was 0.525; in the series with c-Abl (mouse) it was 0.461; with AncSZ it was 0.533; in the series on Fer (mouse) it was 0.441. In the series with Jak2, the phosphorylation enrichment is 0.522.

As to SDYYAYSPVRE [H6PD_Y449], the SH2 binding enrichment in the series with c-Src SH2 was determined as 1.13; with Grb2 SH2 it was 1.06; in the series with SHP2-C SH2, 1.48. In addition, the phosphorylation enrichment with EPHB1 was determined as 17.5; in the series with Fes, 0.832; with Fyn, 9.64; with FGFR1 it was 16.3; with Hck, 8.79; with FGFR3 it was 14.8. For the same sequence, the phosphorylation enrichment with c-Src came to 7.18; in the series with EPHB2, 23.7; with MERTK, 10.7; in the series with c-Abl (mouse), 12.9; in the series on AncSZ, 6.22; with Fer (mouse), 12.9. Also, in the series with Jak2, the phosphorylation enrichment came to 11.2.

YYSSEYHCVGG [CTSC_Y345_Y347C]: the SH2 binding enrichment with c-Src SH2 was determined as 0.834; with Grb2 SH2, 0.726; with SHP2-C SH2, 0.576. In addition, the phosphorylation enrichment was found to be 7.69 in the series with EPHB1; 1.04 in the series with Fes; 2.49 with Fyn; 11.5 with FGFR1; 2.58 in the series with Hck; 9.28 with FGFR3. Further, the phosphorylation enrichment in the series on c-Src is 3.66; in the series with EPHB2 it was 8.59; with MERTK, 8.36; in the series with c-Abl (mouse), 6.69; with AncSZ, 3.84; in the series on Fer (mouse) it was 1.26. Also, the phosphorylation enrichment with Jak2 was 3.05.
